From article PMC7699706, “Responses of DNA Mismatch Repair Proteins to a Stable G-Quadruplex Embedded into a DNA Duplex Structure”

How the values were obtained:
ecMutL [1] = biological target: T1, ecMutL (Escherichia coli, UniProt P23367 1-615); experiment: EMSA; no nucleotide, on ice, 100 nM DNA; MutS EMSA: 5 nM DNA, 20 mM HEPES-KOH pH 7.9, 5 mM MgCl2, 120 mM KCl, 0.5 mg/mL BSA, 1 mM nucleotide, 37 C 15 min; MutL EMSA: 100 nM DNA, 20 mM HEPES pH 8.0 (10); conditions: protein: recombinant; chain copies: 2; label: 3'-TAMRA on strand 2 (95G4); blunt; 19-nt insert in strand 2 folded as intramolecular parallel G4 within duplex
ecMutS [2] = biological target: T2, ecMutS (Escherichia coli, UniProt P23909 1-853); experiment: EMSA; 1 mM ATP, 5 mM MgCl2; MutS EMSA: 5 nM DNA, 20 mM HEPES-KOH pH 7.9, 5 mM MgCl2, 120 mM KCl, 0.5 mg/mL BSA, 1 mM nucleotide, 37 C 15 min; MutL EMSA: 100 nM DNA, 20 mM HEPES pH 8.0 (10); conditions: protein: recombinant, chain copies: 2, blunt
T2 sequence: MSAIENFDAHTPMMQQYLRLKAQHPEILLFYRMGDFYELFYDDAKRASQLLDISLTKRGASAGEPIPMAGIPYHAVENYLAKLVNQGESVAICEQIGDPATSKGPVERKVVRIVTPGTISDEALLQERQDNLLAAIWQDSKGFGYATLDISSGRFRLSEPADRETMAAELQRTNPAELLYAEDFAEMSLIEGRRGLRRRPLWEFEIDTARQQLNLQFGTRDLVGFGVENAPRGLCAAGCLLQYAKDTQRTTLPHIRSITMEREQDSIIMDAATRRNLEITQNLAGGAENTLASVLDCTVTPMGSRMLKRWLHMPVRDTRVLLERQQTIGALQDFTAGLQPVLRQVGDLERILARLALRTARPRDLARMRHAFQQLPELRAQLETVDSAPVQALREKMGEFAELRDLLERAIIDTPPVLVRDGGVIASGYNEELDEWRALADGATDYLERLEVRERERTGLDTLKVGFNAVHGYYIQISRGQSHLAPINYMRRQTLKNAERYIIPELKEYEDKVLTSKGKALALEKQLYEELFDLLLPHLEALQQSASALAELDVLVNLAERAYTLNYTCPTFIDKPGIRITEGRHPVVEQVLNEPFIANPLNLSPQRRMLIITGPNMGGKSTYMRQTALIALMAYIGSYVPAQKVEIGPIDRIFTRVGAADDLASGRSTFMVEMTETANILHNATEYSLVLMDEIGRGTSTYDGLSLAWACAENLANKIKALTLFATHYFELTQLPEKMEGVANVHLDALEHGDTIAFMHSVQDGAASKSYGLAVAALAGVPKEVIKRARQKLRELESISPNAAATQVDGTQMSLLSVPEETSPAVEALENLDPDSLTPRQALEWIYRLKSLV

rsMutS [3] = biological target: T3, rsMutS (Rhodobacter sphaeroides strain 2.4.1, UniProt Q3IYI5 1-875); experiment: as above; conditions: protein: recombinant, tags: N-terminal His6 (pET15b), chain copies: 2, blunt
T3 sequence: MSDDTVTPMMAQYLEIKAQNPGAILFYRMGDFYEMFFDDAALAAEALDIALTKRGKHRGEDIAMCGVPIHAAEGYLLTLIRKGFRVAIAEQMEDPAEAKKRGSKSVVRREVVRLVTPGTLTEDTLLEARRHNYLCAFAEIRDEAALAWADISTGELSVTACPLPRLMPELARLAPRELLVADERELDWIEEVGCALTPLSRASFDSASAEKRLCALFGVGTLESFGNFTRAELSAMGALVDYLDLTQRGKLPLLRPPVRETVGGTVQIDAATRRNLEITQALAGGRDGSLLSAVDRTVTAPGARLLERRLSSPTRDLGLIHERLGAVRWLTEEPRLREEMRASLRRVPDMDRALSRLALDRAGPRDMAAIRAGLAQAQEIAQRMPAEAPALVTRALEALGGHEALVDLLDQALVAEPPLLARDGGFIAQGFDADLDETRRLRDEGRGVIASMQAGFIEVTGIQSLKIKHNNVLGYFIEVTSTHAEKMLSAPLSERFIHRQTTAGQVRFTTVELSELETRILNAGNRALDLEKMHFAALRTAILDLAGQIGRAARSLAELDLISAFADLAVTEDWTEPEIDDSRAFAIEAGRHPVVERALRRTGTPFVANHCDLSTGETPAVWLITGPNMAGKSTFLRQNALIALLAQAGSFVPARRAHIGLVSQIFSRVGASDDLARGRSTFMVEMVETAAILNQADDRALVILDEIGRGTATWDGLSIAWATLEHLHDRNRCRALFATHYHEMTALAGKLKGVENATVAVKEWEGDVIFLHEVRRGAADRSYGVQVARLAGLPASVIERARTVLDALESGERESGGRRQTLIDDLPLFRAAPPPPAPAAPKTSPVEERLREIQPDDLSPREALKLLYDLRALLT

ecMutS [4] = biological target: T2, ecMutS; experiment: EMSA; 1 mM ATPgS, 5 mM MgCl2; MutS EMSA: 5 nM DNA, 20 mM HEPES-KOH pH 7.9, 5 mM MgCl2, 120 mM KCl, 0.5 mg/mL BSA, 1 mM nucleotide, 37 C 15 min; MutL EMSA: 100 nM DNA, 20 mM HEPES pH 8.0 (10); conditions: protein: recombinant; chain copies: 2; label: 3'-TAMRA on strand 2 (95G4); blunt; 19-nt insert in strand 2 folded as intramolecular parallel G4 within duplex
rsMutS [5] = biological target: T3, rsMutS; experiment: as above; conditions: protein: recombinant; tags: N-terminal His6 (pET15b); chain copies: 2; label: 3'-TAMRA on strand 2 (95G4); blunt; 19-nt insert in strand 2 folded as intramolecular parallel G4 within duplex
ecMutS [6] = biological target: T2, ecMutS; experiment: EMSA; 1 mM ADP, 5 mM MgCl2; MutS EMSA: 5 nM DNA, 20 mM HEPES-KOH pH 7.9, 5 mM MgCl2, 120 mM KCl, 0.5 mg/mL BSA, 1 mM nucleotide, 37 C 15 min; MutL EMSA: 100 nM DNA, 20 mM HEPES pH 8.0 (10); conditions: protein: recombinant, chain copies: 2, blunt
rsMutS [7] = biological target: T3, rsMutS; experiment: as above; conditions: protein: recombinant, tags: N-terminal His6 (pET15b), chain copies: 2, blunt
ecMutL [8] = biological target: T1, ecMutL; experiment: EMSA; no nucleotide, on ice, 100 nM DNA; MutS EMSA: 5 nM DNA, 20 mM HEPES-KOH pH 7.9, 5 mM MgCl2, 120 mM KCl, 0.5 mg/mL BSA, 1 mM nucleotide, 37 C 15 min; MutL EMSA: 100 nM DNA, 20 mM HEPES pH 8.0 (10); conditions: protein: recombinant, chain copies: 2, blunt
[9] = label: 3'-TAMRA on strand 2 (95G4), 19-nt insert in strand 2 folded as intramolecular parallel G4 within duplex
[10] = label: 3'-TAMRA on strand 2 (76T), single G/T mismatch
[11] = label: 3'-TAMRA on strand 2 (95(GT)8), 19-nt unstructured (GT)8 loop in strand 2
[12] = label: 3'-TAMRA on strand 2 (76T), perfect duplex

T1 sequence (P23367 whole entry): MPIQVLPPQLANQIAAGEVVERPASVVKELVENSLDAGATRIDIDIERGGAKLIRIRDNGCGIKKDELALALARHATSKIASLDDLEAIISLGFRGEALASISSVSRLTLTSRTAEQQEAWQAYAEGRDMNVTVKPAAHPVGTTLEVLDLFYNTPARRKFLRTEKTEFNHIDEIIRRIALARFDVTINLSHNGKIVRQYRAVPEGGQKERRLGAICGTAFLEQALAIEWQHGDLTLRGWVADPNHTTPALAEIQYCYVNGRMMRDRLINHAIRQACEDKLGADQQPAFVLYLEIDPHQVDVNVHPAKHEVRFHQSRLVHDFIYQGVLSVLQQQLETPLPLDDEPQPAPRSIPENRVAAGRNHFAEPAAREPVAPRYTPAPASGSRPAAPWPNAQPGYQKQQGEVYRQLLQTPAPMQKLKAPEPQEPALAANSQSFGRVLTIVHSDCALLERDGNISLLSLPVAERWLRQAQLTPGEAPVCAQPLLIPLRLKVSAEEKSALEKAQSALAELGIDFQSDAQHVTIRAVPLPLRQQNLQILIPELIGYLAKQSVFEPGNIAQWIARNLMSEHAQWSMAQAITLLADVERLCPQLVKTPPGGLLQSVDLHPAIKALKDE

B1: 76/95G4-A/T (mixed)
DNA 1: TCCTTTCGCGCTTGGATCCTATGAGCGTTACTCGAGCATATGGCTCAGCTGCCAAGCACCAGTGTCAGCGTCCTAT
DNA 2: ATAGGACGCTGACACTGGTGCTTGGCAGCTGAGCCATATTTGGGTGGGTGGGTGGGTTGCTCGAGTAACGCTCATAGGATCCAAGCGCGAAAGGA
modifications: N6-methyl-dA at position 16 of strand 1 (Gm6ATC)
B1 showed a Kd (ecMutL [1]) of ~200 nM, a Kd (ecMutS [2]; [9]) of 32 ± 4 nM and a Kd (rsMutS [3]; [9]) of 23 ± 3 nM. It also gave a Kd (ecMutS [4]) of 31 ± 4 nM, a Kd (rsMutS [5]) of 46 ± 5 nM and a Kd (ecMutS [6]; [9]) of 23 ± 5 nM. The Kd (rsMutS [7]; [9]) was 23 ± 3 nM.

B2: 76/76-G/T (dsDNA)
DNA 1: TCCTTTCGCGCTTGGATCCTATGAGCGTTACTCGAGCATATGGCTCAGCTGCCAGGCACCAGTGTCAGCGTCCTAT
DNA 2: ATAGGACGCTGACACTGGTGCTTGGCAGCTGAGCCATATGCTCGAGTAACGCTCATAGGATCCAAGCGCGAAAGGA
modifications: N6-methyl-dA at position 16 of strand 1 (Gm6ATC)
For B2, the binding signal (ecMutL [8]; [10]) was > 3.7 fold lower binding extent than 76/95G4-A/T at 0.1 uM ecMutL (at least), the Kd (ecMutS [2]; [10]) was 38 ± 4 nM and the Kd (rsMutS [3]; [10]) was 60 ± 10 nM. It also gave a Kd (ecMutS [6]; [10]) of 35 ± 3 nM and a Kd (rsMutS [7]; [10]) of 27 ± 4 nM.

B3: 76/95(GT)8-A/T (mixed)
DNA 1: TCCTTTCGCGCTTGGATCCTATGAGCGTTACTCGAGCATATGGCTCAGCTGCCAAGCACCAGTGTCAGCGTCCTAT
DNA 2: ATAGGACGCTGACACTGGTGCTTGGCAGCTGAGCCATATTTGTGTGTGTGTGTGTGTTGCTCGAGTAACGCTCATAGGATCCAAGCGCGAAAGGA
modifications: N6-methyl-dA at position 16 of strand 1 (Gm6ATC)
With B3 the binding signal (ecMutL [8]; [11]) was 1.9 fold lower binding extent than 76/95G4-A/T at 0.1 uM ecMutL, the Kd (ecMutS [2]; [11]) was 44 ± 6 nM and the Kd (rsMutS [3]; [11]) was 43 ± 5 nM. It also gave a Kd (ecMutS [6]; [11]) of 32 ± 3 nM and a Kd (rsMutS [7]; [11]) of 31 ± 3 nM.

B4: 76/76-A/T (dsDNA)
DNA 1: TCCTTTCGCGCTTGGATCCTATGAGCGTTACTCGAGCATATGGCTCAGCTGCCAAGCACCAGTGTCAGCGTCCTAT
DNA 2: ATAGGACGCTGACACTGGTGCTTGGCAGCTGAGCCATATGCTCGAGTAACGCTCATAGGATCCAAGCGCGAAAGGA
modifications: N6-methyl-dA at position 16 of strand 1 (Gm6ATC)
With B4 the binding signal (ecMutL [8]; [12]) was > 3.7 fold lower binding extent than 76/95G4-A/T at 0.1 uM ecMutL (at least), the Kd (ecMutS [2]; [12]) was 50 ± 10 nM and the Kd (rsMutS [3]; [12]) was 80 ± 30 nM. The Kd (ecMutS [6]; [12]) was 38 ± 4 nM and the Kd (rsMutS [7]; [12]) was 51 ± 4 nM.
